Measurements from paper PMC9482650, “Quantitative fragmentomics allow affinity mapping of interactomes” (Nature Communications, 2022).

Tests used:
Assay in all cases: holdup assay
Design in all cases: key: below the threshold = too weak to quantify, mostly under pKd 3.1 to 4
ARHGAP21, Q5T5U3 = molecular target: T1, ARHGAP21, Q5T5U3
T1 sequence (Q5T5U3 45-169, limits assumed, looked up): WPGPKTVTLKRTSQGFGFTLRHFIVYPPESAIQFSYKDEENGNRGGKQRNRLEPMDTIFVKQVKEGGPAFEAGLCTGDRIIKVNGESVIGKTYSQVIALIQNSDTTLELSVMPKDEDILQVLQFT

DLG1_1, Q12959 = molecular target: DLG1_1, Q12959
DLG3_2, Q92796 = molecular target: T2, DLG3_2, Q92796
T2 sequence (Q92796 221-321, limits assumed, looked up): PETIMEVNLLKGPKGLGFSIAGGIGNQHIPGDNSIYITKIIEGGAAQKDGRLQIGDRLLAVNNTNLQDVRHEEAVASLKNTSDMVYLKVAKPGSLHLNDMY

FRMPD4, Q14CM0 = molecular target: FRMPD4, Q14CM0
GRIP1_4, Q9Y3R0 = molecular target: T3, GRIP1_4, Q9Y3R0
T3 sequence (Q9Y3R0 467-571, limits assumed, looked up): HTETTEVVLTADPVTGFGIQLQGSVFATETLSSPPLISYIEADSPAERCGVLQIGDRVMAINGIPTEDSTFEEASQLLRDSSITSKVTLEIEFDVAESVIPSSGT

GRIP1_5, Q9Y3R0 = molecular target: T4, GRIP1_5, Q9Y3R0
T4 sequence (Q9Y3R0 568-668, limits assumed, looked up): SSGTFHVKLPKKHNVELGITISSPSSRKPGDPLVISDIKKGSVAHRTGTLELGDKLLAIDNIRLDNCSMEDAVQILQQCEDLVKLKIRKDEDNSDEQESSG

GRIP2_5, Q9C0E4 = molecular target: GRIP2_5, Q9C0E4
HTRA3, P83110 = molecular target: T5, HTRA3, P83110
T5 sequence (P83110 354-453, limits assumed, looked up): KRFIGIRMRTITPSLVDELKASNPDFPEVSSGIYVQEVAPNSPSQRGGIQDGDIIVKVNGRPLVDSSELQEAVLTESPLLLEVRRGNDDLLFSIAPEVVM

IL16_3, Q14005 = molecular target: IL16_3, Q14005
IL16_4, Q14005 = molecular target: IL16_4, Q14005
Inadl_2, Q8NI35 = molecular target: Inadl_2, Q8NI35
LAP2, Q96RT1 = molecular target: LAP2, Q96RT1
LIN7B, Q9HAP6 = molecular target: T6, LIN7B, Q9HAP6
T6 sequence (Q9HAP6 88-185, limits assumed, looked up): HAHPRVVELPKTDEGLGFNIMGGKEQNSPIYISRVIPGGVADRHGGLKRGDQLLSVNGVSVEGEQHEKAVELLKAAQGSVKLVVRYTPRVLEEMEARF

LNX2_2, Q8N448 = molecular target: T7, LNX2_2, Q8N448
T7 sequence (Q8N448 334-432, limits assumed, looked up): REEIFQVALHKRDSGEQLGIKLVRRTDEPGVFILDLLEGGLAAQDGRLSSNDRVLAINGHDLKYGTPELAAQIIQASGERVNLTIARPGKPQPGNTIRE

LNX2_3, Q8N448 = molecular target: T8, LNX2_3, Q8N448
T8 sequence (Q8N448 463-564, limits assumed, looked up): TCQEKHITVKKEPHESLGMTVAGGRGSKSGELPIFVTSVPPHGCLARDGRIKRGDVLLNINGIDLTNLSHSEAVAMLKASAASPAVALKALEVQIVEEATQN

MAGI2_2, Q86UL8 = molecular target: MAGI2_2, Q86UL8
MAST2, Q6P0Q8 = molecular target: MAST2, Q6P0Q8
MPP2, Q14168 = molecular target: T9, MPP2, Q14168
T9 sequence (Q14168 180-250, limits assumed, looked up): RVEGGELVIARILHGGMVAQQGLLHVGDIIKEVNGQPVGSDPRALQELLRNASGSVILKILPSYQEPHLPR

NHERF3_1, Q5T2W1 = molecular target: T10, NHERF3_1, Q5T2W1
T10 sequence (Q5T2W1 4-100, limits assumed, looked up): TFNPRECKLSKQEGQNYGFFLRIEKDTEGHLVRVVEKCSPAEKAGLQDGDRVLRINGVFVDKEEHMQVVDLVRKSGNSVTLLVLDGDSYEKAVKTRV

NOS1, P29475 = molecular target: NOS1, P29475
PARD3_3, Q8TEW0 = molecular target: PARD3_3, Q8TEW0
RADIL, Q96JH8 = molecular target: T11, RADIL, Q96JH8
T11 sequence (Q96JH8 971-1071, limits assumed, looked up): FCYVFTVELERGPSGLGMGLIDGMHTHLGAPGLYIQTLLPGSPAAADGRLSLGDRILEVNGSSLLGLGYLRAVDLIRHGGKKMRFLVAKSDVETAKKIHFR

SNX27, Q96L92 = molecular target: SNX27, Q96L92
TIAM2, Q8IVF5 = molecular target: T12, TIAM2, Q8IVF5
T12 sequence (Q8IVF5 885-986, limits assumed, looked up): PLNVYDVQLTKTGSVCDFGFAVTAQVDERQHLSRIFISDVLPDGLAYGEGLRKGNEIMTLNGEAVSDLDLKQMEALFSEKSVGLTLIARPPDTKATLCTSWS

TJP2_1, Q9UDY2 = molecular target: TJP2_1, Q9UDY2
[1] = plain residues with an end cap or a label only (N-terminal biotin on a linker: ado-ado)
[2] = modified: phospho on T at position -2 from the C-terminal residue

Measured: pKd

IL16_3, Q14005, sequence (Q14005 1107-1207): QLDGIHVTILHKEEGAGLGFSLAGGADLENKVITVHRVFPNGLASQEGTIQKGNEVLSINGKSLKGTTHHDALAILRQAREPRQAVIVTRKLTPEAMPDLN
NOS1, P29475, sequence (P29475 9-101): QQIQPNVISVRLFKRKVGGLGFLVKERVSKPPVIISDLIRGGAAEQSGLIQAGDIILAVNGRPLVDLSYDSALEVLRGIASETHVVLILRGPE
LAP2, Q96RT1, sequence (Q96RT1 other isoform, or with tags, fused parts or gaps): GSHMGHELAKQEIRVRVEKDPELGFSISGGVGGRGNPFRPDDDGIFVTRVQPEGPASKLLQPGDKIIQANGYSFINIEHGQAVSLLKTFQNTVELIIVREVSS
MAGI2_2, Q86UL8, sequence (Q86UL8 410-522): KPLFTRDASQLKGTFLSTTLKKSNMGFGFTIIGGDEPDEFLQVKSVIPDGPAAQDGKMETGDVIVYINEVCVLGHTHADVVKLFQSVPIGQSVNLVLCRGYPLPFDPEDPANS
FRMPD4, Q14CM0, sequence (Q14CM0 67-160): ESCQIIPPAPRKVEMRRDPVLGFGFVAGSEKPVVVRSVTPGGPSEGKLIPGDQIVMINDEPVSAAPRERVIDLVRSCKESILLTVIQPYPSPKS
PARD3_3, Q8TEW0, sequence (Q8TEW0 582-685): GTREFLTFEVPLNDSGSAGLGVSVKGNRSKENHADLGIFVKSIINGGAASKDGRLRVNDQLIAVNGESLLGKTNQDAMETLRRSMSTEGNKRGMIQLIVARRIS
GRIP2_5, Q9C0E4, sequence (Q9C0E4 544-642): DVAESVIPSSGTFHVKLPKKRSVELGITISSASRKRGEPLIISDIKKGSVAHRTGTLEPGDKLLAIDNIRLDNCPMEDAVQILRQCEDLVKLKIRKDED
IL16_4, Q14005, sequence (Q14005 1229-1329): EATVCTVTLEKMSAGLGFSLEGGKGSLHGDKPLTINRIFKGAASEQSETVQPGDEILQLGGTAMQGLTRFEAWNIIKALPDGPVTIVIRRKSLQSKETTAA
TJP2_1, Q9UDY2, sequence (Q9UDY2 24-128): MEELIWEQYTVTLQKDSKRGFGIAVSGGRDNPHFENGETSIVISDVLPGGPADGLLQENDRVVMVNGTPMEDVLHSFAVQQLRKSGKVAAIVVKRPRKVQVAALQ
MAST2, Q6P0Q8, sequence (Q6P0Q8 1099-1202): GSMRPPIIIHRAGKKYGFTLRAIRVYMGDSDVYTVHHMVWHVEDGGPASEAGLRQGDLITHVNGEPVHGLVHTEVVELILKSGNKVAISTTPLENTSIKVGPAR
Inadl_2, Q8NI35, sequence (Q8NI35 238-335): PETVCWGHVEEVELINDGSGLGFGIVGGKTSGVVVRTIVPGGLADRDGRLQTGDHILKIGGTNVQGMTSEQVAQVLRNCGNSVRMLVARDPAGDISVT

RRRESYSTTV [EVI5, O60447]
5.2: LNX2_2, Q8N448; [1]
4.84: TJP2_1, Q9UDY2; [1]
4.31: NHERF3_1, Q5T2W1; [1]
3.66: HTRA3, P83110; [1]
5.44: DLG3_2, Q92796; [1]
3.82: ARHGAP21, Q5T5U3; [1]
4.79: SNX27, Q96L92; [1]
4.8: RADIL, Q96JH8; [1]
3.88: LAP2, Q96RT1; [1]
3.79: FRMPD4, Q14CM0; [1]
below the threshold: GRIP1_4, Q9Y3R0; [1] | GRIP1_5, Q9Y3R0; [1] | GRIP2_5, Q9C0E4; [1] | IL16_3, Q14005; [1] | IL16_4, Q14005; [1] | Inadl_2, Q8NI35; [1] | LIN7B, Q9HAP6; [1] | LNX2_3, Q8N448; [1] | MPP2, Q14168; [1] | NOS1, P29475; [1] | PARD3_3, Q8TEW0; [1] | TIAM2, Q8IVF5; [1]
5.66: DLG1_1, Q12959; [1] | MAST2, Q6P0Q8; [1]
5.15: MAGI2_2, Q86UL8; [1]

LGRSTPQSEV [DGKH, Q86XP1]
below the threshold: DLG1_1, Q12959; [1] | DLG3_2, Q92796; [1] | FRMPD4, Q14CM0; [1] | GRIP1_4, Q9Y3R0; [1] | GRIP1_5, Q9Y3R0; [1] | GRIP2_5, Q9C0E4; [1] | HTRA3, P83110; [1] | IL16_3, Q14005; [1] | IL16_4, Q14005; [1] | Inadl_2, Q8NI35; [1] | LAP2, Q96RT1; [1] | LIN7B, Q9HAP6; [1] | LNX2_2, Q8N448; [1] | LNX2_3, Q8N448; [1] | MPP2, Q14168; [1] | NHERF3_1, Q5T2W1; [1] | NOS1, P29475; [1] | PARD3_3, Q8TEW0; [1] | RADIL, Q96JH8; [1] | TIAM2, Q8IVF5; [1] | TJP2_1, Q9UDY2; [1]
4.1: ARHGAP21, Q5T5U3; [1]
3.58: MAGI2_2, Q86UL8; [1]
3.89: SNX27, Q96L92; [1]
4.85: MAST2, Q6P0Q8; [1]

LRSPRTPSEV [OR10G3, Q8NGC4]
3.61: MAST2, Q6P0Q8; [1]
3.53: IL16_4, Q14005; [1]
4.27: MAGI2_2, Q86UL8; [1]
3.9: LAP2, Q96RT1; [1]
3.65: DLG3_2, Q92796; [1]
3.97: ARHGAP21, Q5T5U3; [1]
below the threshold: DLG1_1, Q12959; [1] | FRMPD4, Q14CM0; [1] | GRIP1_4, Q9Y3R0; [1] | GRIP1_5, Q9Y3R0; [1] | GRIP2_5, Q9C0E4; [1] | HTRA3, P83110; [1] | IL16_3, Q14005; [1] | Inadl_2, Q8NI35; [1] | LNX2_2, Q8N448; [1] | LNX2_3, Q8N448; [1] | MPP2, Q14168; [1] | NHERF3_1, Q5T2W1; [1] | PARD3_3, Q8TEW0; [1] | RADIL, Q96JH8; [1] | SNX27, Q96L92; [1] | TIAM2, Q8IVF5; [1] | TJP2_1, Q9UDY2; [1]
3.76: NOS1, P29475; [1]
3.85: LIN7B, Q9HAP6; [1]

RRLPGKETMA [GRIK2, Q13002]
below the threshold: ARHGAP21, Q5T5U3; [1] | DLG1_1, Q12959; [1] | FRMPD4, Q14CM0; [1] | GRIP1_4, Q9Y3R0; [1] | GRIP1_5, Q9Y3R0; [1] | GRIP2_5, Q9C0E4; [1] | HTRA3, P83110; [1] | IL16_3, Q14005; [1] | IL16_4, Q14005; [1] | Inadl_2, Q8NI35; [1] | LAP2, Q96RT1; [1] | LNX2_2, Q8N448; [1] | LNX2_3, Q8N448; [1] | MAGI2_2, Q86UL8; [1] | MAST2, Q6P0Q8; [1] | MPP2, Q14168; [1] | NHERF3_1, Q5T2W1; [1] | NOS1, P29475; [1] | PARD3_3, Q8TEW0; [1] | RADIL, Q96JH8; [1] | SNX27, Q96L92; [1] | TJP2_1, Q9UDY2; [1]
3.97: TIAM2, Q8IVF5; [1]
3.64: LIN7B, Q9HAP6; [1]
4.18: DLG3_2, Q92796; [1]

SKPTRRETEV [HPV35-E6_-2P, P27228]
3.59: SNX27, Q96L92; [2]
4.08: ARHGAP21, Q5T5U3; [2]
below the threshold: DLG1_1, Q12959; [2] | DLG3_2, Q92796; [2] | FRMPD4, Q14CM0; [2] | GRIP1_4, Q9Y3R0; [2] | GRIP1_5, Q9Y3R0; [2] | GRIP2_5, Q9C0E4; [2] | HTRA3, P83110; [2] | IL16_3, Q14005; [2] | IL16_4, Q14005; [2] | Inadl_2, Q8NI35; [2] | LAP2, Q96RT1; [2] | LIN7B, Q9HAP6; [2] | LNX2_2, Q8N448; [2] | LNX2_3, Q8N448; [2] | MAGI2_2, Q86UL8; [2] | MAST2, Q6P0Q8; [2] | MPP2, Q14168; [2] | NHERF3_1, Q5T2W1; [2] | NOS1, P29475; [2] | PARD3_3, Q8TEW0; [2] | RADIL, Q96JH8; [2] | TIAM2, Q8IVF5; [2] | TJP2_1, Q9UDY2; [2]

YNNCLEILRV [DCAF7, P61962]
3.97: PARD3_3, Q8TEW0; [1]
5.14: RADIL, Q96JH8; [1]
3.65: Inadl_2, Q8NI35; [1]
4.53: MAST2, Q6P0Q8; [1]
below the threshold: ARHGAP21, Q5T5U3; [1] | DLG1_1, Q12959; [1] | DLG3_2, Q92796; [1] | FRMPD4, Q14CM0; [1] | GRIP1_4, Q9Y3R0; [1] | GRIP1_5, Q9Y3R0; [1] | GRIP2_5, Q9C0E4; [1] | HTRA3, P83110; [1] | IL16_3, Q14005; [1] | IL16_4, Q14005; [1] | LAP2, Q96RT1; [1] | LIN7B, Q9HAP6; [1] | LNX2_3, Q8N448; [1] | MAGI2_2, Q86UL8; [1] | MPP2, Q14168; [1] | NHERF3_1, Q5T2W1; [1] | NOS1, P29475; [1] | SNX27, Q96L92; [1] | TJP2_1, Q9UDY2; [1]
4.91: LNX2_2, Q8N448; [1]
4.04: TIAM2, Q8IVF5; [1]
